In US12006368 (SURROZEN OPERATING, dated 2024):

Experiments:
Frizzled 3 = biological target: T1, Frizzled 3 (human, UniProt Q9NPG1 23-148, limits assumed); assay: phage ELISA on immobilised antigen (initial binding)
T1 construct: Target antigen immobilised on plates in the phage ELISA; also called Fzd3; Fz3
T1 sequence (looked up): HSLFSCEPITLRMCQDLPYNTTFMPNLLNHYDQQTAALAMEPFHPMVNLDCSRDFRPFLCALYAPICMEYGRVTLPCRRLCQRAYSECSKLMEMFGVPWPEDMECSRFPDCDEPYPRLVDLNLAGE
Procedure: (§1) Detection of bound phage was determined […] by turnover of TMB substrate (Thermo Fisher Scientific, Waltham, MA) at […] by anti-M13-HRP antibody (GE Healthcare, Pittsburgh, PA). Clones were identified as binding to a Fzd receptor when the fold OD 450 nm over background was greater than a threshold level.

[1] = biological target: T2, Fzd1 cysteine rich domain (CRD), C-terminally biotinylated (human, UniProt Q9UP38 101-230); assay: summary in Table 3; method not given there
[2] = biological target: T3, Fzd7 cysteine rich domain (CRD), C-terminally biotinylated (human, UniProt O75084 36-165); assay: summary in Table 3; method not given there
[3] = biological target: T2, Fzd1 cysteine rich domain (CRD), …; assay: BLI; *=Kd <100 nM
Procedure: (§2) Binding kinetics of antibody fragments to a variety of Fzd cysteine rich domain (CRD) protein targets (Fzd1, Fzd2, Fzd3, Fzd4, Fzd5, Fzd6, Fzd7, Fzd8, Fzd9 and/or Fzd10 CRDs) was determined by bio-layer interferometry (BLI) using Octet Red 96 (PALL ForteBio, Fremont, CA) instruments at 30° C., 1000 rpm with streptavidin (SA) biosensors. C-terminal biotinylated Fzd CRD recombinant protein was diluted to 20 nM in the running buffer (PBS, 0.05% Tween-20, 0.5% BSA, pH 7.2) and captured to the SA biosensor until coupling length reached 0.2 nm. Following capture of the Fzd CRD, the SA biosensor with captured biotinylated-Fzd CRD was dipped into wells containing the relevant antibody fragment at […] (0, 1.37, 4.12, 12.4, 37, 111.1, 333.3, 1000 nM) in running buffer, plus a well with only running buffer as a reference channel. […] was determined by global fitting, 1:1 binding model according to manufacturer recommended settings.
(§3) Table 1B provides clone IDs, the sequence identifier number of the antibody heavy chain fragment and/or light chain fragment, if present, for illustrative clones. In certain embodiments, the Fzd binding domain is an Fab or was derived from an Fab, so the heavy chain of Table 1B includes VH and CH1 sequence, but not CH2 or CH3 sequences. In certain embodiments, the Fzd binding domain is a VHH or sdAb® or was derived from a VHH or sdAb, so Table 1B includes the VHH domain. […] The Kd values were determined by BLI as described above. Blank entries denote that the binding to the specific Fzd receptor has not yet been determined. The entry of "n.b." indicates no binding.

[4] = biological target: Fzd2 cysteine rich domain (CRD), C-terminally biotinylated (human, UniProt Q14332 24-155); assay: BLI; *=Kd <100 nM
Procedure: as §2, §3

[5] = biological target: T3, Fzd7 cysteine rich domain (CRD), …; assay: BLI; *=Kd <100 nM
Procedure: as §2, §3

[6] = biological target: T2, Fzd1 cysteine rich domain (CRD), …; assay: BLI; *=Kd <=100 nM
Procedure: as §2
(§4) One antibody fragment, clone 001S-A04, was selected for alanine-scanning mutagenesis of CDRs, and the respective Fzd1 binding affinities of the various mutants were determined by Octet BLI as described in Example 1.

[7] = biological target: T2, Fzd1 cysteine rich domain (CRD), …; assay: BLI
Procedure: as §2, §4

Fzd5 = biological target: T4, Fzd5 (UniProt Q13467 27-152, limits assumed); assay: phage ELISA on immobilised antigen
T4 construct: immobilised target antigen of the phage ELISA and the Fzd named in specificity sentences; also called Frizzled 5; Fz5
T4 sequence (looked up): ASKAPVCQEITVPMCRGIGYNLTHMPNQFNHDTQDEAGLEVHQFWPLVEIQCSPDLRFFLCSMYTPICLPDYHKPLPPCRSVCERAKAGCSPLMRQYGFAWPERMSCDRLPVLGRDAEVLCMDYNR
Procedure: as §1

[8] = biological target: T5, hFzd5 CRD-Xtal (hFzd5_Q13467_27-152) (human, UniProt Q13467 27-152); assay: size-exclusion chromatography of the Fzd CRD_Xtal:Fab mixture
T5 construct: complex incubated with carboxypeptidase A and B before crystallisation
T5 sequence: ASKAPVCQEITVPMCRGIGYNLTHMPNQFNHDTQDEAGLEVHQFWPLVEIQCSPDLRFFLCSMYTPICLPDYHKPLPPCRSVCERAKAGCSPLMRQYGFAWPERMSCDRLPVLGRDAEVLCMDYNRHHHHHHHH
Procedure: Purfied Fzd CRD_Xtal and Fab binders were mixed at 1.1:1 molar ratio (little excess of the smaller molecular weight protein), and incubated with carboxy-peptidase A and B at a w/w ratio of 100:1 for over-night at 4° C. Complex formation was confirmed by observation of a single-major peak on SuperdexS200 Increase (10/300 GL) column pre-equilibrated in HBS. Fractions containing complexes were further checked by SDS-PAGE, and concentrated to a range from 10 to 55 mg/mL for crystallization screens. Initial crystallization screen, using commercially available MCSG1, MCSG2, MCSG3, MCSG4, PACT (Molecular Dimensions), PEGs I, and PEGs II (Qiagen) screen, and optimization by grid-screens or microseed matrix screen [MMS; Microseed matrix screening for optimization in protein crystallization: what have we learned? D'Arcy, A., Bergfors, T., Cowan-Jacob S. W., and Marshd, M. Acta Cryst. F70, 1117-1126 (2014)]. were performed using Mosquito (TTP LabTech) liquid handler, and equilibrated at 18° C. inside an EchoTherm incubator (Torrey Pines Scientific). 96-well plate crystal screening experiments were periodically monitored manually via a DiscoveryV20 stereomicroscope (Zeiss), and crystals were frozen for data collection by plunging into liquid nitrogen in the presence of various cryo-protectants (typically 15 to 30% v/v of glycerol or ethyleneglycol). X-ray diffraction datasets were collected at the Berkeley Center for Structural Biology at the Advanced Light Source (ALS), Berkeley CA, and processed with XDS [Kabsch, W. XDS. Acta Cryst. D66, 125-132 (2010)], and xdsme [Legrand, P. XDSME: XDS Made Easier (2017) GitHub repository, https://github-.com/legrandp/xdsme DOI 10.5281/zenodo.837885]. programs. Structure of Fzd:Fab complexes were determined by molecular replacement method using Phaser with constant and variable domains of related Fabs are template [Phaser crystallographic software. A. J. McCoy, R. W. Grosse-Kunstleve, P. D. Adams, M. D. Winn, L. C. Storoni, and R. J. Read. J Appl Crystallogr 40, 658-674 (2007)], followed by refinement and validation by MolProbity as implemented in Phenix [PHENIX: a comprehensive Python-based system for macromolecular structure solution.

B1: 029S-E03 (Fab, V domains shown)
VH: QVQLVQSGAEVKKPGASVKVSCKASGYTFTGYYMHWVRQAPGQGLEWMGWINPNSGNTGYAQKFQGRVTMTRDTSTSTVYMELSSLRSEDTAVYYCARSYYGVIDAFDIWGQGTMVTVSS
VL: DIQMTQSPSSLSASVGDRVTITCRASQSISSYLNWYQQKPGKAPKLLIYAASSLQTGVPSRFSGSGSGTDFTLTISSLQPEDFATYYCQQSFRLPLTFGQGTKVEIKR
B1: binds (Frizzled 3).

B2: R2M9 (003S-E07) Fab (Fab, V domains shown)
VH: QVQLVQSGAEVKKPGSSVKVSCKASGYTFTNNFMHWVRQAPGQGLEWMGWINPNSGGTKYAQKFQGRVTITADESTSTAYMELSSLRSEDTAVYYCARSVGEVGATMLGIGVWYWFDPWGQGTLVTVSS
VL: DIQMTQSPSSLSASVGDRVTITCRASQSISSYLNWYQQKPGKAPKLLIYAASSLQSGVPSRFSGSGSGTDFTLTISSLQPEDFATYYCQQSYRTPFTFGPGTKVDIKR
notes: heavy chain entry ends in GSGSG-His6
B2: binds [1]; binds [2].

B3: 001S-A04 (Fab, V domains shown)
VH: EVQLVQSGAEVKKPGASVKVSCKASGYTFTSYGISWVRQAPGQGLEWMGWISAYNGNTNYAQKLQGRVTMTTDTSTSTAYMELRSLRSDDTAVYYCASSKEKATYYYGMDVWGQGTTVTVSS
VL: QAVVLQEPSLSVSPGGTVTLTCGLSSGSVSTNYYPSWYQQTPGQAPRTLIYYTNTRSSDVPERFSGSIVGNKAALTITGAQPDDESVYFCLLYLGRGIWVFGGGTKLTVLG
notes: also called R2M3; WT
B3 gave a Kd [3] of under 100 nM, a Kd [4] of under 100 nM and a Kd [5] of under 100 nM. For the same binder, the KD [6] was at most 100 nM.

B4: 001S-A04 mutant VHY8A (Fab, V domains shown)
VH: EVQLVQSGAEVKKPGASVKVSCKASGYTFTSYGISWVRQAPGQGLEWMGWISAYNGNTNYAQKLQGRVTMTTDTSTSTAYMELRSLRSDDTAVYYCASSKEKATYAYGMDVWGQGTTVTVSS
VL: QAVVLQEPSLSVSPGGTVTLTCGLSSGSVSTNYYPSWYQQTPGQAPRTLIYYTNTRSSDVPERFSGSIVGNKAALTITGAQPDDESVYFCLLYLGRGIWVFGGGTKLTVLG
B4: no binding (tested: 1000 nM) [7].

B5: 004S-E05 Fab (Fab, V domains shown)
VH: EVQLVESGGGLVQPGGSLRLSCAASGFTFSTYEMNWVRQAPGKGLEWVSGVSWNGSRTHYVDSVKGRFTISRDNSKNTLYLQLNSLRAEDTAVYYCARGQSEKWWSGLYGMDVWGQGTTVTVSS
VL: DIQMTQSPSSLSASVGDRVTITCRASQGISSALAWYQQKPGKAPKLLIYAASALQSGVPSRFSGSGSGTDFTLTISSLQPEDFATYYCQQTYSTPRTFGPGTKVDIKR
notes: Fab chains as crystallised (heavy chain with hexa-histidine tag); also called 004S-E050
B5: binds (Fzd5); binds [8].
